PMC7894885, “Cyp33 binds AU-rich RNA motifs via an extended interface that competitively disrupts the gene repressive Cyp33-MLL1 interaction in vitro”

Experiments:
[1] = molecular target: MLL1 PHD3 (Homo sapiens) (UniProt Q03164); settings: cited from earlier work
[2] = molecular target: T1, FL-Cyp33 (human, UniProt Q9UNP9 1-301); assay: EMSA; EMSA: SELEX buffer (composition in S2 Table, not in material; physiological salt is 135 mM KCl, 15 mM NaCl) + 10% glycerol, 5 nM RNA, 0.5X TBE 8% PAGE at room temperature; NMR: SELEX buffer + 10% D2O, 25 C; pH not given; settings: protein: recombinant, 6xHis-thrombin construct for NMR, hairpin (predicted)
[3] = molecular target: Cyp33-Cyp (human, UniProt Q9UNP9 131-301); assay: NMR 1H-15N HSQC; no significant perturbation; EMSA: SELEX buffer (composition in S2 Table, not in material; physiological salt is 135 mM KCl, 15 mM NaCl) + 10% glycerol, 5 nM RNA, 0.5X TBE 8% PAGE at room temperature; NMR: SELEX buffer + 10% D2O, 25 C; pH not given; settings: protein: recombinant; tags: C-terminal 6xHis, pET15b; label: 5'-32P (EMSA); hairpin (predicted)
[4] = molecular target: T1, FL-Cyp33; assay: EMSA; no quantifiable binding by gel shift; EMSA: SELEX buffer (composition in S2 Table, not in material; physiological salt is 135 mM KCl, 15 mM NaCl) + 10% glycerol, 5 nM RNA, 0.5X TBE 8% PAGE at room temperature; NMR: SELEX buffer + 10% D2O, 25 C; pH not given; settings: protein: recombinant; 6xHis-thrombin construct for NMR; single strand

T1 sequence (Q9UNP9 whole entry): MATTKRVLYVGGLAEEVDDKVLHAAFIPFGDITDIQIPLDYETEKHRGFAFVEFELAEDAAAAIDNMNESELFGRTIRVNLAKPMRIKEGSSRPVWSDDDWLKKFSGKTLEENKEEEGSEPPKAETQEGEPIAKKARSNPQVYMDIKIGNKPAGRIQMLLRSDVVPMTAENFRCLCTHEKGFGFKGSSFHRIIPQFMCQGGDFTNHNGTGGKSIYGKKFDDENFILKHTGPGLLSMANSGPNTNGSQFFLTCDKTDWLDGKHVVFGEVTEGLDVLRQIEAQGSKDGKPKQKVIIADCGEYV
Cyp33-Cyp, sequence (Q9UNP9 131-301): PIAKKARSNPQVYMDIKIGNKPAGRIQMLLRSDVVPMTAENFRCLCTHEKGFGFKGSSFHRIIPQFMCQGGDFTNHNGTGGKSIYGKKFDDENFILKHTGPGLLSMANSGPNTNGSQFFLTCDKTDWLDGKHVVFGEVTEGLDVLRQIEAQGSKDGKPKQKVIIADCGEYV
MLL1 PHD3 (Homo sapiens), sequence (Q03164 1566-1627): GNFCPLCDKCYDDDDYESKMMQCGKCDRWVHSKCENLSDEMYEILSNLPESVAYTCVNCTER

For Cyp33 RRM (from UniProt Q9UNP9), the Kd [1] is given as 1.9 µM.

For UGGUAGACCAGUGAUAAUUAACCUGAUGCGUGGAGGAUAUCGAGUUGUCC (structured_RNA) [SO-1], the Kd ([2]; label: 5'-32P (EMSA)) was 6.6 ± 0.6 µM and the binding result [3] was “no binding”.

With UGGCCGGCCCAUCCCGACUGCCGGGUGAUAGACUCUUUAGCGAUUUAUGG (structured_RNA) [SO-4] the Kd ([2]; label: 5'-32P) was 55 ± 10 µM.

With AAAGUGAGAUAAGGUAACAACAAGAAUAAUAAUAUACCUAUCAUCUUGCC (structured_RNA) [SO-9] the Kd ([2]; label: 5'-32P) was ~90 µM.

UGGUAGACCAGUGAUAAUUAACCUGAUG (structured_RNA) [SO-3] showed a Kd ([2]; label: 5'-32P) of 32 ± 2.5 µM.

B1: SO-8 (structured_RNA)
RNA: AGAACAAUAAUUACAAAGACUGAGCGUUUUAAAGUCUCCUCAUGUGCCCCC
B1 showed a Kd ([2]; label: 5'-32P) of 24 ± 13 µM.

CAGGUGUGUGACUACGAAAGAACAAUAAUAACACAAAAGAGUCCCGUGCC (structured_RNA) [SO-2] gave a Kd ([2]; label: 5'-32P) of 21 ± 3.1 µM.

Molecule AGGUGCCUCAAAUCCGCAUAAGAAUAACAACAUGGAGUGAAGCGCUCCCC (structured_RNA) [SO-6] has a Kd ([2]; label: 5'-32P) of 36 ± 10 µM.

AGUGAUAAUUAA (ssRNA) [SO-1 single-stranded region 12-mer]: no binding [4].

AAUAAUAA (ssRNA) [AAUAAUAA k-mer]: no binding [4].
